Results on five molecules are retold here after article PMC10086132, “Riboflavin kinase and pyridoxine 5′-phosphate oxidase complex formation envisages transient interactions for FMN cofactor delivery” (Frontiers in Molecular Biosciences, 2023).

Series [1] concerns the target T1, RFK (riboflavin kinase; hRFK when loaded with FMN:ADP:Mg2+) (Homo sapiens, UniProt Q969G6).
T1 construct: recombinant, purified in apo-form by a previously described procedure
T1 sequence (Q969G6 1-155): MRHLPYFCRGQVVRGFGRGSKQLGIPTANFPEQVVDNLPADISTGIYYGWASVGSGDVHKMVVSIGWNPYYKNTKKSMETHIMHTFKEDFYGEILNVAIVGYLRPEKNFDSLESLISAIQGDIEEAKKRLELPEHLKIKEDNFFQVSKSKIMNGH
Kind of series: thermal unfolding followed by Trp and FMN fluorescence. The format is binding. Conditions: FMN bound together with ADP:Mg2+ (hRFK) versus ligand-free RFK; 20 mM PIPES pH 7.0.

The target of series [2] is T2, PNPOx (pyridoxine-5′-phosphate oxidase; aPNPOx for the apo-form) (Homo sapiens, UniProt Q9NVS9).
T2 construct: gene PNPO; pET28a(+) in Escherichia coli, HisTrap-purified, tag removal not mentioned; homodimer; FMN removed for the apo-form
T2 sequence (Q9NVS9 1-261): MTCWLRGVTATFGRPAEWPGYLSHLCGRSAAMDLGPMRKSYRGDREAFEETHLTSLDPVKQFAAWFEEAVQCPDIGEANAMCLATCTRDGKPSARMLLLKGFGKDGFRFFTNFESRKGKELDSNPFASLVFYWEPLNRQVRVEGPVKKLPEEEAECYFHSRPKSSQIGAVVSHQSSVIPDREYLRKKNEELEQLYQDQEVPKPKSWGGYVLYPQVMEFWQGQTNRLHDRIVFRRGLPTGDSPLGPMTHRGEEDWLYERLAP
Nature of the series: stopped-flow flavin fluorescence quenching. The format is binding. Conditions: faster of two association processes, 20 mM PIPES pH 7.0, 0.3 mM MgCl2, 25 °C.

Series [3] addresses T2, PNPOx (pyridoxine-5′-phosphate oxidase; aPNPOx for the apo-form). Kind of series: thermal unfolding followed by Trp and FMN fluorescence. The format is binding. As to conditions: holo-form versus apo-form; 20 mM PIPES pH 7.0.
Series [4] has as its target T3, RFK (Homo sapiens, UniProt Q969G6).
T3 chain: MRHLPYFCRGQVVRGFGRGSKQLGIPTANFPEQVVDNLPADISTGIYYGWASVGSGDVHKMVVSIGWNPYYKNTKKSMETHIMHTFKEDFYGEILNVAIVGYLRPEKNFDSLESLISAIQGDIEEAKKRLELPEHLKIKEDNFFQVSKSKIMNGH
Nature of the series: ITC.

Series [5] addresses T3, RFK. Kind of series: stopped-flow fluorescence.
Substrate in series [6]: Cc1cc2nc3c(=O)[nH]c(=O)nc-3n(C[C@H](O)[C@H](O)[C@H](O)CO)c2cc1C
Kind of series: purified protein. Conditions: no aPNPOx, 400 µM ATP, 0.3 mM MgCl2, 20 mM PIPES pH 7.0, 25 °C.

As usually defined, the Kd is a measure of binding affinity in units of concentration. Lower therefore signals tighter binding. For orientation: Km means the substrate concentration at which the rate is half of its maximum. What is called kcat is the number of substrate molecules converted per active site and unit of time at saturation. As usually defined, the kcat/Km is the second-order rate constant that governs catalysis at low substrate concentration.

As to `Cc1cc2nc3c(=O)[nH]c(=O)nc-3n(C[C@H](O)[C@H](O)[C@H](O)COP(=O)(O)O)c2cc1C` [FMN], the “increase of Tm” value in series [1] is ~ 32 °C; in series [3], “Both proteins were considerably less stable in apo-forms regarding their respective holo-forms”. For the same molecule, the “k on1 ^FMN” value in series [2] is 340000 ± 20000 M⁻¹ s⁻¹.

B1: PNPOx (protein)
chain: MTCWLRGVTATFGRPAEWPGYLSHLCGRSAAMDLGPMRKSYRGDREAFEETHLTSLDPVKQFAAWFEEAVQCPDIGEANAMCLATCTRDGKPSARMLLLKGFGKDGFRFFTNFESRKGKELDSNPFASLVFYWEPLNRQVRVEGPVKKLPEEEAECYFHSRPKSSQIGAVVSHQSSVIPDREYLRKKNEELEQLYQDQEVPKPKSWGGYVLYPQVMEFWQGQTNRLHDRIVFRRGLPTGDSPLGPMTHRGEEDWLYERLAP
modifications: apo-PNPOx homodimer; ligand-free RFK
As to B1, binding in series [4] was put at a Kd of 14000 nM.

B2: PNPOx (protein)
chain: MTCWLRGVTATFGRPAEWPGYLSHLCGRSAAMDLGPMRKSYRGDREAFEETHLTSLDPVKQFAAWFEEAVQCPDIGEANAMCLATCTRDGKPSARMLLLKGFGKDGFRFFTNFESRKGKELDSNPFASLVFYWEPLNRQVRVEGPVKKLPEEEAECYFHSRPKSSQIGAVVSHQSSVIPDREYLRKKNEELEQLYQDQEVPKPKSWGGYVLYPQVMEFWQGQTNRLHDRIVFRRGLPTGDSPLGPMTHRGEEDWLYERLAP
modifications: apo-PNPOx homodimer; RFK loaded with FMN and ADP:Mg2+
In the case of B2, the Kd was 900 nM in series [4] and about 1000 nM in series [5].

B3: PNPOx (protein)
chain: MTCWLRGVTATFGRPAEWPGYLSHLCGRSAAMDLGPMRKSYRGDREAFEETHLTSLDPVKQFAAWFEEAVQCPDIGEANAMCLATCTRDGKPSARMLLLKGFGKDGFRFFTNFESRKGKELDSNPFASLVFYWEPLNRQVRVEGPVKKLPEEEAECYFHSRPKSSQIGAVVSHQSSVIPDREYLRKKNEELEQLYQDQEVPKPKSWGGYVLYPQVMEFWQGQTNRLHDRIVFRRGLPTGDSPLGPMTHRGEEDWLYERLAP
modifications: holo-PNPOx homodimer with FMN; RFK loaded with FMN and ADP:Mg2+; first binding site
As to B3, the equilibrium dissociation constant (Kd) in series [4] was found to be 130 nM.

B4: RFK (riboflavin kinase; hRFK when loaded with FMN:ADP:Mg2+) (Homo sapiens) (protein)
chain: MRHLPYFCRGQVVRGFGRGSKQLGIPTANFPEQVVDNLPADISTGIYYGWASVGSGDVHKMVVSIGWNPYYKNTKKSMETHIMHTFKEDFYGEILNVAIVGYLRPEKNFDSLESLISAIQGDIEEAKKRLELPEHLKIKEDNFFQVSKSKIMNGH
As for B4, in series [6], the Michaelis-Menten constant (Km) was determined as 2.2 ± 0.3 µM, the turnover number (kcat) worked out at 1 s⁻¹ and the kcat/Km was 450000 M⁻¹ s⁻¹.
